The text below walks through data of publication PMC4098744, “Systematic family‐wide analysis of sodium bicarbonate cotransporter NBCn1/SLC4A7 interactions with PDZ scaffold proteins” (Physiological Reports, 2014).

The test concerns the target T1, PSD‐95 third PDZ domain (residue 307–446) (UniProt P78352 307-446).
T1 construct: also called PSD‐95 (3); PSD‐95 (domain 3); source: spotted on a PDZ array membrane (Zhang et al. 2007)
Put plainly: peptide or protein array; PDZ filter overlay: 96 Class I PDZ domains spotted on a nylon membrane; overlaid with 100 nmol/L GST/NBCn1 (or GST only) in blot buffer (50 mmol/L NaCl, 2% dry milk, 0.1% Tween 20, 10 mmol/L HEPES; pH 7.4) for 1 h at room temperature; detected with HRP-conjugated anti-GST antibody; done three times. To be noted: both partners purified.

T1 sequence (P78352 307-446): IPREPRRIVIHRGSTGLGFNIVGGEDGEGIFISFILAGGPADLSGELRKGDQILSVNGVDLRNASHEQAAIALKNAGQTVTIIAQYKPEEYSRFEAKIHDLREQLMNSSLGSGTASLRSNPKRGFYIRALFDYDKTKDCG

B1: GST/NBCn1 fusion protein containing the C‐terminal 26 amino acids of rat NBCn1 (domain or fragment, UniProt Q9R1N3-2 1229-1254, looked up)
chain: PEKPVSVTINFEDEPSKKYMDAETSL
notes: NBCn1 (SLC4A7), rat, the C-terminal 26 amino acids; also called C‐terminal domain of NBCn1 fused to GST; source: prepared as described previously (Lee et al. 2012)
B1: the binding result is “binds”.
